Here are results for 2 molecules from PMC2425476 (Nucleic Acids Research, 2008).

Like-named read-outs stand apart in the source and are kept apart here.

Series [1] has as its target γ complex (clamp loader, γ3δδ'χψ), wild type;β clamp (Escherichia coli;Escherichia coli, UniProt P06710-2;P28630;P28631;P28905;P28632;P0A988 1-431;1-343;1-334;1-147;1-137;1-366, |). Briefly: fluorescence anisotropy. For orientation: Fluorescence polarisation rises when a labelled molecule tumbles more slowly, as on binding a larger partner.
Series [2] concerns the target T1, δW279Y-γ complex;β clamp (Escherichia coli;Escherichia coli, UniProt P06710-2;P28630;P28631;P28905;P28632;P0A988 1-431;1-343;1-334;1-147;1-137;1-366, W279Y|). The series is described as follows: fluorescence anisotropy.
The next series has as its target δW279A-γ complex;β clamp (Escherichia coli;Escherichia coli, UniProt P06710-2;P28630;P28631;P28905;P28632;P0A988 1-431;1-343;1-334;1-147;1-137;1-366, W279A|). Briefly: fluorescence anisotropy.
The target of series [3] is δW279A/R277A-γ complex;β clamp (Escherichia coli;Escherichia coli, UniProt P06710-2;P28630;P28631;P28905;P28632;P0A988 1-431;1-343;1-334;1-147;1-137;1-366, R277A;W279A|). The series is described as follows: fluorescence anisotropy.
The target in series [4] is δW279A/R283A-γ complex;β clamp (Escherichia coli;Escherichia coli, UniProt P06710-2;P28630;P28631;P28905;P28632;P0A988 1-431;1-343;1-334;1-147;1-137;1-366, W279A;R283A|). The series is described as follows: fluorescence anisotropy.
For series [5], the target named is T1, δW279Y-γ complex;β clamp. Briefly: fluorescence anisotropy. This is another data set of the same source.
Series [6] concerns the molecule itself.

B1: 30 nt/55 nt p/tDNA (mixed)
DNA 1: TGAGCGTTTTTCCTGTTGCAATGGCTGGCGGTAATATTGTTCTGGATATTACCAG
DNA 2: CTGGTAATATCCAGAACAATATTACCGCCA
modifications: 5' amino linker on template (S2)
With B1, the Kd – broadly, the constant that tells how readily two partners part at equilibrium – in series [1] is 60 ± 10 nM; in the series with δW279Y-γ complex;β clamp [2], 159 ± 15 nM; in the series with δW279A-γ complex;β clamp it was 590 ± 80 nM; with δW279Y-γ complex;β clamp [5], around 800 nM. Moreover, the binding result in series [3] and in series [4] was “no binding” each time.

B2: γ subunit of the E. coli clamp loader (γ complex) (natural protein)
chain: MSYQVLARKWRPQTFADVVGQEHVLTALANGLSLGRIHHAYLFSGTRGVGKTSIARLLAKGLNCETGITATPCGVCDNCREIEQGRFVDLIEIDAASRTKVEDTRDLLDNVQYAPARGRFKVYLIDEVHMLSRHSFNALLKTLEEPPEHVKFLLATTDPQKLPVTILSRCLQFHLKALDVEQIRHQLEHILNEEHIAHEPRALQLLARAAEGSLRDALSLTDQAIASGDGQVSTQAVSAMLGTLDDDQALSLVEAMVEANGERVMALINEAAARGIEWEALLVEMLGLLHRIAMVQLSPAALGNDMAAIELRMRELARTIPPTDIQLYYQTLLIGRKELPYAPDRRMGVEMTLLRALAFHPRMPLPEPEVPRQSFAPVAPTAVMTPTQVPPQPQSAPQQAPTVPLPETTSQVLAARQQLQRVQGATKAKKE
For B2, the binding result in series [6] is on record as “binds”.
